Reference: US20230303701A1 (ABEXXA BIOLOGICS, published 2023)
Like-named read-outs stand apart in the source and are kept apart here.

Tests used:
[1] = target: HLA-E/… (V-0025, HLA-G signal peptide) complex on cells (human) (UniProt P13747); assay: flow cytometry, K562.E +V-0025, column 0 µg/mL +mIgG1
[2] = target: HLA-E on cells that do not present the HLA-G signal peptide (unpulsed K562.E cells; HLA-E positive, HLA-G negative cells; Tap-1 knock-out cells) (human) (UniProt P13747); assay: flow cytometry, K562.E, column 0 µg/mL +mIgG1
Chain of HLA-E on cells that do not present the HLA-G signal peptide (unpulsed K562.E cells; HLA-E positive, HLA-G negative cells; Tap-1 knock-out cells) (human) (P13747 22-358): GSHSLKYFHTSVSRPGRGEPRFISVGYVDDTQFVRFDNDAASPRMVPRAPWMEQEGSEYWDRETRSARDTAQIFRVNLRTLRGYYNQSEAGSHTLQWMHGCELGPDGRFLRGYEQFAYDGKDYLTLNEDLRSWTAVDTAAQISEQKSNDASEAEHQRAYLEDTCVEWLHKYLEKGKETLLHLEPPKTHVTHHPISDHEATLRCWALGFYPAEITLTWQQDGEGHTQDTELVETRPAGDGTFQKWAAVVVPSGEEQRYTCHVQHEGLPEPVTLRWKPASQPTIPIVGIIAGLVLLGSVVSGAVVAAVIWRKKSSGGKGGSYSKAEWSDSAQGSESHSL

[3] = target: V-0025 (…, HLA-G signal peptide)/HLA-E*0103 monomer complex (human); assay: ELISA, V-0025 at 0.25 µg/mL, antibody titrated from 2 µg/mL to 3.8 pg/mL
[4] = target: T1, P-0550 (…, PODXL2) pulsed on K562 cells expressing HLA-E (human, UniProt P13747 22-358; P61769 21-119); assay: flow cytometry, ABX0011 staining with Fc block, K562.E cells pulsed with 20 ug/mL peptide for 2hr
[5] = target: T2, V-0034 (…) pulsed on K562 cells expressing HLA-E (human, UniProt P13747 22-358; P61769 21-119); assay: as above
[6] = target: T3, HLA-E/… (V-0025, HLA-G signal peptide) complex on cells (human, UniProt P13747 22-358; P61769 21-119); assay: as above
T3 construct: also called K562.E + V-0025; V-0025 peptide pulsed K562 cells expressing HLA-E

[7] = target: V-0046 (…)/HLA-E 01:03 monomer complex (human); assay: ELISA, monomer at 0.25 ug/ml on neutravidin plate (FIG. 9B)
[8] = target: V-0044 (…)/HLA-E 01:03 monomer complex (human); assay: as above
[9] = target: V-0021 (…)/HLA-E 01:03 monomer complex (human); assay: as above
[10] = target: V-0035 (…)/HLA-E 01:03 monomer complex (human); assay: as above
[11] = target: V-0040 (…)/HLA-E 01:03 monomer complex (human); assay: as above
[12] = target: V-0045 (…)/HLA-E 01:03 monomer complex (human); assay: as above
[13] = target: V-0042 (…)/HLA-E 01:03 monomer complex (human); assay: as above
[14] = target: V-0041 (…)/HLA-E 01:03 monomer complex (human); assay: as above
[15] = target: V-0038 (…, Hsp60)/HLA-E 01:03 monomer complex (human); assay: as above
[16] = target: P-0550 (…, PODXL2)/HLA-E 01:03 monomer complex (human); assay: as above
peptide-empty HLA-E = peptide-empty HLA-E (human); assay: ELISA, ABX0011 in mouse serum, HLA-E 01:03 monomers
[17] = target: T4, V-0025 (…, HLA-G signal peptide)/HLA-E*0103 monomer complex (human); assay: ELISA, V-0025 at 0.25 µg/mL, antibody titrated from 2 µg/mL to 3.8 pg/mL
T4 construct: also called ABI-V-0025; 0025-E 01:03 monomer complex

[18] = target: T4, V-0025 (…, HLA-G signal …); assay: label-free ResoSens instrument; ABX0011 captured by anti-IgG-Fc, monomer complex in serial dilutions from 5 µg/ml; monovalent
[19] = target: V-0037 (…)/HLA-E 01:03 monomer complex (human); assay: ELISA, monomers on a neutravidin plate
[20] = target: V-0034 (…)/HLA-E 01:03 monomer complex (human); assay: ELISA, monomers on a neutravidin plate
[21] = target: V-0043 (…)/HLA-E 01:03 monomer complex (human); assay: ELISA, monomers on a neutravidin plate
[22] = target: T5, HLA-G on cell lines that express HLA-G but not HLA-E (human, UniProt P17693 25-338); assay: flow cytometry, IFNγ-stimulated JEG3 HLA-E knock-out
T5 construct: whole, on cells

[23] = target: V-0041 (…) pulsed on K562 cells expressing HLA-E (human, UniProt P13747 22-358; P61769 21-119); assay: flow cytometry, peptide-pulsed K562.E cells, antibody molecules per cell
[24] = target: T1, P-0550 (…, PODXL2) pulsed on K562 cells …; assay: as above
[25] = target: V-0037 (…) pulsed on K562 cells expressing HLA-E (human, UniProt P13747 22-358; P61769 21-119); assay: as above
[26] = target: T2, V-0034 (…) pulsed on K562 cells …; assay: as above
[27] = target: V-0042 (…) pulsed on K562 cells expressing HLA-E (human, UniProt P13747 22-358; P61769 21-119); assay: as above
[28] = target: V-0021 (…) pulsed on K562 cells expressing HLA-E (human, UniProt P13747 22-358; P61769 21-119); assay: as above
[29] = target: V-0046 (…) pulsed on K562 cells expressing HLA-E (human, UniProt P13747 22-358; P61769 21-119); assay: as above
[30] = target: V-0040 (…) pulsed on K562 cells expressing HLA-E (human, UniProt P13747 22-358; P61769 21-119); assay: as above
[31] = target: V-0043 (…) pulsed on K562 cells expressing HLA-E (human, UniProt P13747 22-358; P61769 21-119); assay: as above
[32] = target: V-0035 (…) pulsed on K562 cells expressing HLA-E (human, UniProt P13747 22-358; P61769 21-119); assay: as above
[33] = target: V-0045 (…) pulsed on K562 cells expressing HLA-E (human, UniProt P13747 22-358; P61769 21-119); assay: as above
[34] = target: V-0038 (…, Hsp60) pulsed on K562 cells expressing HLA-E (human, UniProt P13747 22-358; P61769 21-119); assay: as above
[35] = target: V-0044 (…) pulsed on K562 cells expressing HLA-E (human, UniProt P13747 22-358; P61769 21-119); assay: as above
[36] = target: T5, HLA-G on cell lines that express HLA-G …; assay: flow cytometry, JEG3 stimulated with IFNγ (FIG. 25A of the legend)

**Q.** Which results are given for mIgG1 (antibody)?
**A.** % of cells in Q3 (HLA-E channel +, Fab-scFv-Fc -) [1]: 0.37; % of cells in Q3 (HLA-E channel +, Fab-scFv-Fc -) [2]: 0.39

**Q.** anti-HLA-E antibody clone 3D12 was tested. Which EC50 (read off the curve) [3] did it give?
**A.** 7 ng/mL

B1: ABX0011 (antibody, V domains shown)
VH: EVQLLESGGGLVQPGGSLRLSCAASGFTFSSYAMSWVRQAPGKGLEWVSTIAYGGGATAYADSVKGRFTISRDNSKNTLYLQMNSLRAEDTAVYYCAKGLSNFDYWGQGTLVTVSS
VL: DIQMTQSPSSLSASVGDRVTITCRASQSISSYLNWYQQKPGKAPKLLIYAASSLQSGVPSRFSGSGSGTDFTLTISSLQPEDFATYYCQQAAAYPSLFGQGTKVEIK
notes: also called ABX-11; R2-C02 as hIgG1
**Q.** Does B1 bind [4]?
**A.** no binding (tested: 10 µg/mL)

**Q.** Does B1 bind [5]?
**A.** no binding (tested: 10 µg/mL)

**Q.** And the “EC50 (read off the curve)” value [6]?
**A.** ~50 ng/mL

**Q.** Does B1 bind [7]?
**A.** no binding (tested: 1 ug/ml)

**Q.** Does B1 bind [8]?
**A.** no binding (tested: 1 ug/ml)

**Q.** Does B1 bind [9]?
**A.** no binding (tested: 1 ug/ml)

**Q.** Does B1 bind [10]?
**A.** no binding (tested: 1 ug/ml)

**Q.** Does B1 bind [11]?
**A.** no binding (tested: 1 ug/ml)

**Q.** Does B1 bind [12]?
**A.** no binding (tested: 1 ug/ml)

**Q.** Does B1 bind [13]?
**A.** no binding (tested: 1 ug/ml)

**Q.** Does B1 bind [14]?
**A.** no binding (tested: 1 ug/ml)

**Q.** Does B1 bind [15]?
**A.** no binding (tested: 1 ug/ml)

**Q.** Does B1 bind [16]?
**A.** no binding (tested: 1 ug/ml)

**Q.** Does B1 bind (peptide-empty HLA-E)?
**A.** no binding (tested: 1 µg/ml)

**Q.** And the “EC50 (read off the curve)” value [17]?
**A.** ~1 ng/mL

**Q.** And the Kd [18]?
**A.** 7.9 nM

**Q.** Does B1 bind [19]?
**A.** no binding (tested: 1 ug/ml)

**Q.** Does B1 bind [20]?
**A.** no binding (tested: 1 ug/ml)

**Q.** Does B1 bind [21]?
**A.** no binding (tested: 1 ug/ml)

**Q.** Does B1 bind [22]?
**A.** no binding (tested: 1 µg/mL)

B2: ABX0012 (ABX0011 with mouse IgG1) (antibody, V domains shown)
VH: EVQLLESGGGLVQPGGSLRLSCAASGFTFSSYAMSWVRQAPGKGLEWVSTIAYGGGATAYADSVKGRFTISRDNSKNTLYLQMNSLRAEDTAVYYCAKGLSNFDYWGQGTLVTVSS
VL: DIQMTQSPSSLSASVGDRVTITCRASQSISSYLNWYQQKPGKAPKLLIYAASSLQSGVPSRFSGSGSGTDFTLTISSLQPEDFATYYCQQAAAYPSLFGQGTKVEIKR
notes: also called ABX012; AB0012
**Q.** Does B2 bind [23]?
**A.** no binding

**Q.** Does B2 bind [24]?
**A.** no binding

**Q.** Does B2 bind [25]?
**A.** no binding

**Q.** Does B2 bind [26]?
**A.** no binding

**Q.** Does B2 bind [27]?
**A.** no binding

**Q.** Does B2 bind [28]?
**A.** no binding

**Q.** Does B2 bind [29]?
**A.** no binding

**Q.** Does B2 bind [30]?
**A.** no binding

**Q.** Does B2 bind [31]?
**A.** no binding

**Q.** Does B2 bind [32]?
**A.** no binding

**Q.** Does B2 bind [33]?
**A.** no binding

**Q.** Does B2 bind [34]?
**A.** no binding

**Q.** Does B2 bind [35]?
**A.** no binding

**Q.** Does B2 bind [36]?
**A.** no binding
